Here are results for five molecules from US20220119448A1 (ZHEJIANG DOER BIOLOGICS, published 2022).

Test [1] addresses GLP-2R (GLP-2 receptor) on GLP-2R/Luc-CHO cells. Nature of the test: cell-based or functional assay.
The target of test [2] is T1, VEGF (UniProt P15692-4 27-191, limits assumed, biotin-labelled (Sulfo-NHS biotin, molar ratio 2:1) in the BLI assay; unlabelled in the competition ELISA).
T1 construct: also called biotin-labeled VEGF
Nature of the test: competition ELISA: inhibition of VEGF binding to plate-coated VEGF Receptor 2 (KDR). Here is the method:
(§1) The plate was then blocked with 1% BSA/TBS and placed at 37° C. for 1 h; 1% BSA/TBS was added to the plate, 200 μL per well, and placed at 37° C. for 2 h.
(§2) Then, the stock solutions were diluted by 3 times to a total of 11 concentrations. […] The KDR-coated ELISA plate was washed twice and pat-dried. The mixture was successively transferred to the ELISA plate and placed at 37° C. for 1 h, then the plate was washed for 6 times. […] The plate was placed at 37° C. for 1 h and washed for 6 times. Then, goat anti-rat secondary antibody (Pierce, 31432, QA1969921) diluted at 1:1000 was added, 50 μL per well. The plate was placed at 37° C. for 1 h and washed for 6 times. Color developing solution was added after reaction, and the plated was incubated at 37° C. for 15 min. Stop buffer was added to terminate the color reaction. OD450 values were read on a microplate reader.
A general note: In an ELISA, binding on a coated surface is turned into a signal by an enzyme label.

Test [3] deals with T1, VEGF. Nature of the test: competition ELISA: sample pre-mixed with VEGF, mixture put on a plate coated with VEGF Receptor 2 (KDR), bound VEGF detected with mouse anti-human VEGF antibody, OD450; blocked ligand-receptor pair VEGF/KDR. Here is the method:
as §1, §2

For test [4], the target named is T1, VEGF. Nature of the test: BLI (Octet-QK), biotin-VEGF on SA probe; average of 3 repeats (STD 0.10). From the text: (§3) The binding affinities of the fusion proteins were detected using BLI (Bio-layer inteferometry, ForteBio). […] Excess biotin not involved in labeling was removed by dialysis. […] The buffer used in the experiment was PBS (containing 0.1% Tween-20). […] Based on the program settings, the fusion proteins were bound, and then dissociated in PBST solution, to obtain the experimental curves. According to the result analysis software of Octet-QK, local full was used to fit the curves of the experimental results, then kon, kdis and Kd were determined.

Test [5] has as its target T1, VEGF. Nature of the test: BLI (Octet-QK), biotin-VEGF on SA probe; repeat 1.
Description: as §3

The target of test [6] is T1, VEGF. Nature of the test: BLI (Octet-QK), biotin-VEGF on SA probe; repeat 3.
Description: as §3
For orientation: BLI is a label-free optical method that tracks binding on a fibre tip over time.

Test [7] concerns the target T1, VEGF. Nature of the test: BLI (Octet-QK), biotin-VEGF on SA probe; repeat 2.
Description: as §3

Test [8] has as its target T1, VEGF. Nature of the test: BLI (Octet-QK), biotin-VEGF on SA probe; average of 3 repeats (STD 0.05).
Description: as §3

T1 sequence (P15692 other isoform, or with tags, fused parts or gaps limits assumed): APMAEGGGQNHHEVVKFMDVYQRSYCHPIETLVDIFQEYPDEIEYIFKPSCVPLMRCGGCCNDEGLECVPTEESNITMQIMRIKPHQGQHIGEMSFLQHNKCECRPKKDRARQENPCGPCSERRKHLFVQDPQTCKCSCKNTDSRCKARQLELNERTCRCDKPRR

B1: GLP2G-PU141x47 (ligand)
chain: HGDGSFSDEMNTILDNLAARDFINWLIQTKITDAPAAPPEEAAAEPPAAEAAPAPAAPPEEAAAEPPAAEAAPAPAAPPEEAAAEPPAAEAAPAPAAPPEEAAAEPPAAEAAPAPAAPPEEAAAEPPAAEAAPAPAAPPEEAAAEPPAAEAAPAPAAPPEEAAAEPPAAEAAPAPAAPPEEAAAEPPAAEAAPAPAAPPEEAAAEPPAAEAAPAPAAPPEEAAAEPPAAEAAPAPAAPPEEAAAEPPAAEAAPAPAAPPEEAAAEPPAAEAAPAPAAPPEEAAAEPPAAEAAPAPAAPPEEAAAEPPAAEAAPAPAAPPEEAAAEPPAAEAAPAPAAPPEEAAAEPPAAEAAPAPAAPPEEAAAEPPAAEAAPAPAAPPEEAAAEPPAAEAAPAPAAPPEEAAAEPPAAEAAPAPAAPPEEAAAEPPAAEAAPAPAAPPEEAAAEPPAAEAAPAPAAPPEEAAAEPPAAEAAPAPAAPPEEAAAEPPAAEAAPAPAAPPEEAAAEPPAAEAAPAPAAPPEEAAAEPPAAEAAPAPAAPPEEAAAEPPAAEAAPAPAAPPEEAAAEPPAAEAAPAPAAPPEEAAAEPPAAEAAPAPAAPPEEAAAEPPAAEAAPAPAAPPEEAAAEPPAAEAAPAPAAPPEEAAAEPPAAEAAPAPAAPPEEAAAEPPAAEAAPAPAAPPEEAAAEPPAAEAAPAPAAPPEEAAAEPPAAEAAPAPAAPPEEAAAEPPAAEAAPAPAAPPEEAAAEPPAAEAAPAPAAPPEEAAAEPPAAEAAPAPAAPPEEAAAEPPAAEAAPAPAAPPEEAAAEPPAAEAAPAPAAPPEEAAAEPPAAEAAPAPAAPPEEAAAEPPAAEAAPAPAAPPEEAAAEPPAAEAAPAPAAPPEEAAAEPPAAEAAPAPAAPPEEAAAEPPAAEAAPAPAAPPEEAAAEPPAAEAAPAPAAPPEEAAAEPPAAEAAPAPAAPPEEAAAEPPAAEAAP
With B1, the “in vitro cytological activity, EC50 (luciferase reporter, GLP-2R/Luc-CHO cells)” value (shortened to “in vitro cytological activity, EC50”) in test [1] amounted to 299 nM.

B2: GLP2G-PU69x45 (ligand)
chain: HGDGSFSDEMNTILDNLAARDFINWLIQTKITDAPPEAPEAPEAAPAAPEPAEAPPEAPEAPEAAPAAPEPAEAPPEAPEAPEAAPAAPEPAEAPPEAPEAPEAAPAAPEPAEAPPEAPEAPEAAPAAPEPAEAPPEAPEAPEAAPAAPEPAEAPPEAPEAPEAAPAAPEPAEAPPEAPEAPEAAPAAPEPAEAPPEAPEAPEAAPAAPEPAEAPPEAPEAPEAAPAAPEPAEAPPEAPEAPEAAPAAPEPAEAPPEAPEAPEAAPAAPEPAEAPPEAPEAPEAAPAAPEPAEAPPEAPEAPEAAPAAPEPAEAPPEAPEAPEAAPAAPEPAEAPPEAPEAPEAAPAAPEPAEAPPEAPEAPEAAPAAPEPAEAPPEAPEAPEAAPAAPEPAEAPPEAPEAPEAAPAAPEPAEAPPEAPEAPEAAPAAPEPAEAPPEAPEAPEAAPAAPEPAEAPPEAPEAPEAAPAAPEPAEAPPEAPEAPEAAPAAPEPAEAPPEAPEAPEAAPAAPEPAEAPPEAPEAPEAAPAAPEPAEAPPEAPEAPEAAPAAPEPAEAPPEAPEAPEAAPAAPEPAEAPPEAPEAPEAAPAAPEPAEAPPEAPEAPEAAPAAPEPAEAPPEAPEAPEAAPAAPEPAEAPPEAPEAPEAAPAAPEPAEAPPEAPEAPEAAPAAPEPAEAPPEAPEAPEAAPAAPEPAEAPPEAPEAPEAAPAAPEPAEAPPEAPEAPEAAPAAPEPAEAPPEAPEAPEAAPAAPEPAEAPPEAPEAPEAAPAAPEPAEAPPEAPEAPEAAPAAPEPAEAPPEAPEAPEAAPAAPEPAEAPPEAPEAPEAAPAAPEPAEAPPEAPEAPEAAPAAPEPAEAPPEAPEAPEAAPAAPEPAEAPPEAPEAPEAAPAAPEPAEAPPEAPEAPEAAPAAPEPAEAPPEAPEAPEAAPAAPEPAE
Consider B2, for which the “in vitro cytological activity, EC50” value in test [1] was found to be 279 nM.

B3: ankyrin repeat protein binding to VEGF (ARVEGF) (designed binder)
chain: GSDLDKKLLEAARAGQDDEVRILMANGADVNARDSTGWTPLHLAAPWGHPEIVEVLLKNGADVNAADFQGWTPLHLAAAVGHLEIVEVLLKYGADVNAQDKFGKTAFDISIDNGNEDLAEILQKAA
notes: Its preparation and any tag are not described
As for B3, in the test with VEGF [2], the IC50 is 0.65 nM. Moreover, the “IC50 (read off the curve)” value in the test with VEGF [3] was about 0.3 nM. The Kd in the test with VEGF [4] came to 0.68 nM; with VEGF [5] it was 0.58 nM; with VEGF [6], 0.77 nM; with VEGF [7] it was 0.69 nM.

B4: PU73x49-ARVEGF (designed binder)
chain: APAEAPAAAEEAPPAEPAPEAPAEAPAAAEEAPPAEPAPEAPAEAPAAAEEAPPAEPAPEAPAEAPAAAEEAPPAEPAPEAPAEAPAAAEEAPPAEPAPEAPAEAPAAAEEAPPAEPAPEAPAEAPAAAEEAPPAEPAPEAPAEAPAAAEEAPPAEPAPEAPAEAPAAAEEAPPAEPAPEAPAEAPAAAEEAPPAEPAPEAPAEAPAAAEEAPPAEPAPEAPAEAPAAAEEAPPAEPAPEAPAEAPAAAEEAPPAEPAPEAPAEAPAAAEEAPPAEPAPEAPAEAPAAAEEAPPAEPAPEAPAEAPAAAEEAPPAEPAPEAPAEAPAAAEEAPPAEPAPEAPAEAPAAAEEAPPAEPAPEAPAEAPAAAEEAPPAEPAPEAPAEAPAAAEEAPPAEPAPEAPAEAPAAAEEAPPAEPAPEAPAEAPAAAEEAPPAEPAPEAPAEAPAAAEEAPPAEPAPEAPAEAPAAAEEAPPAEPAPEAPAEAPAAAEEAPPAEPAPEAPAEAPAAAEEAPPAEPAPEAPAEAPAAAEEAPPAEPAPEAPAEAPAAAEEAPPAEPAPEAPAEAPAAAEEAPPAEPAPEAPAEAPAAAEEAPPAEPAPEAPAEAPAAAEEAPPAEPAPEAPAEAPAAAEEAPPAEPAPEAPAEAPAAAEEAPPAEPAPEAPAEAPAAAEEAPPAEPAPEAPAEAPAAAEEAPPAEPAPEAPAEAPAAAEEAPPAEPAPEAPAEAPAAAEEAPPAEPAPEAPAEAPAAAEEAPPAEPAPEAPAEAPAAAEEAPPAEPAPEAPAEAPAAAEEAPPAEPAPEAPAEAPAAAEEAPPAEPAPEAPAEAPAAAEEAPPAEPAPEAPAEAPAAAEEAPPAEPAPEAPAEAPAAAEEAPPAEPAPEAPAEAPAAAEEAPPAEPAPEAPAEAPAAAEEAPPAEPAPEAPAEAPAAAEEAPPAEPAPEAPAEAPAAAEEAPPAEPAPEAPAEAPAAAEEAPPAEPAPEGSDLDKKLLEAARAGQDDEVRILMANGADVNARDSTGWTPLHLAAPWGHPEIVEVLLKNGADVNAADFQGWTPLHLAAAVGHLEIVEVLLKYGADVNAQDKFGKTAFDISIDNGNEDLAEILQKAA
notes: also called PU-ARVEGF fusion protein
As for B4, the IC50 with VEGF [2] amounted to 0.55 nM. In addition, in the test with VEGF [3], the “IC50 (read off the curve)” value was about 0.3 nM. Further, the Kd with VEGF [8] stood at 0.64 nM; with VEGF [5], 0.62 nM; in the test with VEGF [6], 0.7 nM; in the test with VEGF [7], 0.61 nM.

B5: GLP2G-PU98x43 (ligand)
chain: HGDGSFSDEMNTILDNLAARDFINWLIQTKITDAEPAAPAPAEPAAPAPEAPAAEPAAPAPAEPAAPAPEAPAAEPAAPAPAEPAAPAPEAPAAEPAAPAPAEPAAPAPEAPAAEPAAPAPAEPAAPAPEAPAAEPAAPAPAEPAAPAPEAPAAEPAAPAPAEPAAPAPEAPAAEPAAPAPAEPAAPAPEAPAAEPAAPAPAEPAAPAPEAPAAEPAAPAPAEPAAPAPEAPAAEPAAPAPAEPAAPAPEAPAAEPAAPAPAEPAAPAPEAPAAEPAAPAPAEPAAPAPEAPAAEPAAPAPAEPAAPAPEAPAAEPAAPAPAEPAAPAPEAPAAEPAAPAPAEPAAPAPEAPAAEPAAPAPAEPAAPAPEAPAAEPAAPAPAEPAAPAPEAPAAEPAAPAPAEPAAPAPEAPAAEPAAPAPAEPAAPAPEAPAAEPAAPAPAEPAAPAPEAPAAEPAAPAPAEPAAPAPEAPAAEPAAPAPAEPAAPAPEAPAAEPAAPAPAEPAAPAPEAPAAEPAAPAPAEPAAPAPEAPAAEPAAPAPAEPAAPAPEAPAAEPAAPAPAEPAAPAPEAPAAEPAAPAPAEPAAPAPEAPAAEPAAPAPAEPAAPAPEAPAAEPAAPAPAEPAAPAPEAPAAEPAAPAPAEPAAPAPEAPAAEPAAPAPAEPAAPAPEAPAAEPAAPAPAEPAAPAPEAPAAEPAAPAPAEPAAPAPEAPAAEPAAPAPAEPAAPAPEAPAAEPAAPAPAEPAAPAPEAPAAEPAAPAPAEPAAPAPEAPAAEPAAPAPAEPAAPAPEAPAAEPAAPAPAEPAAPAPEAPAAEPAAPAPAEPAAPAPEAPAAEPAAPAPAEPAAPAPEAPAAEPAAPAPAEPAAPAPEAPAAEPAAPAPAEPAAPAPEAPA
Regarding B5, the “in vitro cytological activity, EC50” value in test [1] was determined as 311 nM.

The IC50 is the concentration needed to halve the response being measured. By Kd is commonly meant the free concentration of one partner at which half of the binding sites on the other are occupied at equilibrium, for simple one-to-one binding.
